Experimental data: the RNAGym collection of RNA variant scans (doi:10.1093/molbev/msab373)

B1: Azoarcus group I ribozyme (parent)
chain: GUGCCUUGCGCCGGGAAACCACGCAAGGGAUGGUGUCAAAUUCGGCGAAACCUAAGCGCCCGCCCGGGCGUAUGGCAACGCCGAGCCAAGCUUCGGCGCCUGCGCCGAUGAAGGUGUAGAGACUAGACGGCACCCACCUAAGGCAAACGCUAUGGUGAAGGCAUAGUCCAGGGAGUGGCGAAAGUCACACAAACCGG

Variants of: B1
Assay: reverse-splicing fitness (ratio to wild type); higher = more active; in vitro selection; Mg2+ level not given
Method in brief: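 An in vitro group I ribozyme library with randomized positions was T7-transcribed and gel-purified. In triplicate, 10 pmol RNA in EPPS pH 7.5 was reacted with 50 pmoles of a 30-nt RNA substrate for 1 h at 37 °C across several added MgCl2 levels (1–48 mM), then stopped with EDTA. Products were reverse transcribed from a substrate-complementary primer, PCR-amplified and sequenced (HiSeq 4000). Fitness is a variant's read proportion after selection over that before, normalised to wild type.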

Variant | reverse-splicing fitness
A111U A120U A145G C150G C169G U176C | 0.00495
A111U A120U A145G C150G C169G U176G | 0.00343
A111U A120U A145G C150G C169G U176A | 0.00683
A111U A145C C150A C169U U176A | 0.0157
A111U A145C C150A C169U U176G | 0.00676
A111U A145C C150A C169U U176C | 0.0105
A111U A120U A145U C169G U176C | 0.00666
A111U A120U A145U C169G U176G | 0.00201
A111U A120U A145U C169G U176A | 0.00482
A111U A120U C150U C169G U176G | 0.00213
A111U A120U C150U C169G U176C | 0.00679
A111U A120U C150U C169G U176A | 0.00847
A111U A120U A145U C169G | 0.0519
A111U A120U A145U C169A | 0.00401
A111U A120U A145U C169U | 0.0617
A111U A120U C150G C169U U176A | 0.00272
A111U A120U C150G C169U U176G | 0.0029
A111U A120U C150G C169U U176C | 0.00454
A111U A145C C169U U176C | 0.0265
A111U A145C C169U U176G | 0.0061
A111U A145C C169U U176A | 0.0252
A111U A120U A145U C150G C169G U176C | 0.00228
A111U A120U A145U C150G C169G U176A | 0.00294
A111U A120U A145U C150G C169G U176G | 0.00207

Variant | reverse-splicing fitness
A111U A145C C150A C169A | 0.00817
A111U A145C C150A C169G | 0.00935
A111U A145C C150A C169U | 0.0131
A111U A145C C150U | 0.661
A111U A145C C150G | 0.426
A111U A145C C150A | 0.23
A111U A120U A145U C150U C169G U176C | 0.00596
A111U A120U A145U C150U C169G U176G | 0.00227
A111U A120U A145U C150U C169G U176A | 0.00542
A111U A120U C169G | 0.0555
A111U A120U C169A | 0.00533
A111U A120U C169U | 0.0747
A111U A120U A145U C150G C169U U176C | 0.0031
A111U A120U A145U C150G C169U U176G | 0.00222
A111U A120U A145U C150G C169U U176A | 0.00295
A111U A120U C150A U176A | 0.0294
A111U A120U C150A U176C | 0.0318
A111U A120U C150A U176G | 0.0103
A111U A145G | 0.921
A111U A145C | 0.974
A111U A145C C150U C169U U176G | 0.00571
A111U A145C C150U C169U U176A | 0.0173
A111U A145C C150U C169U U176C | 0.0152
A111U A120U A145U C150A C169G U176C | 0.00325

Variant | reverse-splicing fitness
A111U A120U A145U C150A C169G U176G | 0.00225
A111U A120U A145U C150A C169G U176A | 0.00269
A111U A145G C150A C169U U176C | 0.0191
A111U A145G C150A C169U U176G | 0.00686
A111U A145G C150A C169U U176A | 0.0173
A111U A120U A145G C150A C169U U176A | 0.00532
A111U A120U A145G C150A C169U U176C | 0.00537
A111U A120U A145G C150A C169U U176G | 0.00312
A111U A120U C150U C169U U176A | 0.0088
A111U A120U C150U C169U U176G | 0.00287
A111U A120U C150U C169U U176C | 0.0116
A111U A145C C150G C169A U176A | 0.0076
A111U A145C C150G C169A U176G | 0.00612
A111U A145C C150G C169A U176C | 0.00643
A111U A120U A145U C150A C169A U176A | 0.00284
A111U A120U A145U C150A C169A U176C | 0.00214
A111U A120U A145U C150A C169A U176G | 0.00154
A111U A120U A145G C150U C169A U176G | 0.00237
A111U A120U A145G C150U C169A U176A | 0.00497
A111U A120U A145G C150U C169A U176C | 0.00389
A111U A120U A145G C150A U176A | 0.0364
A111U A120U A145G C150A U176G | 0.00868
A111U A120U A145G C150A U176C | 0.0415
A111U A145G C150G C169A U176G | 0.00707

Variant | reverse-splicing fitness
A111U A145G C150G C169A U176C | 0.0121
A111U A145G C150G C169A U176A | 0.0118
A111U A145C C150G C169U U176A | 0.00903
A111U A145C C150G C169U U176G | 0.00557
A111U A145C C150G C169U U176C | 0.0128
A111U A145C C150A C169A U176C | 0.00656
A111U A145C C150A C169A U176A | 0.0128
A111U A145C C150A C169A U176G | 0.00617
A111U A145G C150U C169U U176A | 0.025
A111U A145G C150U C169U U176C | 0.0314
A111U A145G C150U C169U U176G | 0.00652
A111U A120U A145C C169U U176A | 0.00945
A111U A120U A145C C169U U176G | 0.00245
A111U A120U A145C C169U U176C | 0.00989
A111U A120U A145C C169G U176C | 0.00515
A111U A120U A145C C169G U176A | 0.00441
A111U A120U A145C C169G U176G | 0.00199
A111U A120U A145G C150G C169G | 0.01
A111U A120U A145G C150G C169A | 0.00796
A111U A120U A145G C150G C169U | 0.0125
A111U A145G C150U C169A U176C | 0.017
A111U A145G C150U C169A U176A | 0.0155
A111U A145G C150U C169A U176G | 0.00732
A111U A120U C150G U176C | 0.0189

Variant | reverse-splicing fitness
A111U A120U C150G U176G | 0.00286
A111U A120U C150G U176A | 0.00718
A111U A145C C169A | 0.027
A111U A145C C169U | 0.108
A111U A145C C169G | 0.0589
A111U A120U A145C C169A U176G | 0.00152
A111U A120U A145C C169A U176A | 0.0026
A111U A120U A145C C169A U176C | 0.00249
A111U A120U A145U C150U C169A U176A | 0.00308
A111U A120U A145U C150U C169A U176C | 0.00309
A111U A120U A145U C150U C169A U176G | 0.00264
A111U A120U A145G C150A C169U | 0.012
A111U A120U A145G C150A C169G | 0.00946
A111U A120U A145G C150A C169A | 0.00554
A111U A145C C150G C169G U176G | 0.00549
A111U A145C C150G C169G U176A | 0.00774
A111U A145C C150G C169G U176C | 0.00846
A111U A120U C150A C169G U176A | 0.00698
A111U A120U C150A C169G U176G | 0.00254
A111U A120U C150A C169G U176C | 0.00445
A111U A120U A145G C150A C169A U176A | 0.0049
A111U A120U A145G C150A C169A U176G | 0.00281
A111U A120U A145G C150A C169A U176C | 0.0038
A111U A120U C169A U176G | 0.00214

Variant | reverse-splicing fitness
A111U A120U C169A U176A | 0.00255
A111U A120U C169A U176C | 0.00373
A111U A120U A145G C169U U176A | 0.0114
A111U A120U A145G C169U U176C | 0.0176
A111U A120U A145G C169U U176G | 0.00258
A111U A145C U176A | 0.757
A111U A145C U176G | 0.329
A111U A145C U176C | 0.706
A111U A145G C150G C169U U176C | 0.0136
A111U A145G C150G C169U U176G | 0.0076
A111U A145G C150G C169U U176A | 0.0111
A111U A145G C150U C169G U176G | 0.00671
A111U A145G C150U C169G U176A | 0.0164
A111U A145G C150U C169G U176C | 0.0269
A111U A145G C150G C169G U176C | 0.0116
A111U A145G C150G C169G U176G | 0.00597
A111U A145G C150G C169G U176A | 0.00998
A111U A145G C150A C169G | 0.0147
A111U A145G C150A C169U | 0.0213
A111U A145G C150A C169A | 0.0132
A111U A145G C169G U176C | 0.0358
A111U A145G C169G U176G | 0.00535
A111U A145G C169G U176A | 0.0249
A111U A145C C150G U176G | 0.0277

Variant | reverse-splicing fitness
A111U A145C C150G U176C | 0.218
A111U A145C C150G U176A | 0.153
A111U A120U C150A C169U U176A | 0.00638
A111U A120U C150A C169U U176G | 0.00212
A111U A120U C150A C169U U176C | 0.0045
A111U A145C C150U C169A | 0.0113
A111U A145C C150U C169G | 0.0177
A111U A145C C150U C169U | 0.0312
A111U A145G C150A C169A U176G | 0.0068
A111U A145G C150A C169A U176A | 0.0172
A111U A145G C150A C169A U176C | 0.0233
A111U A145G C150A U176A | 0.238
A111U A145G C150A U176C | 0.299
A111U A145G C150A U176G | 0.0951
A111U A120U A145U C150G | 0.0604
A111U A120U A145U C150A | 0.0527
A111U A120U A145U C150U | 0.405
A111U A120U A145U C169A U176A | 0.00253
A111U A120U A145U C169A U176G | 0.00231
A111U A120U A145U C169A U176C | 0.00283
A111U A120U A145C C169G | 0.0459
A111U A120U A145C C169A | 0.00435
A111U A120U A145C C169U | 0.0629
